The results in this text go back to publication PMC2212354.

Assay [1] addresses CXCR3, stably expressed on HEK293 cells (human) (UniProt P49682). Briefly: radioligand binding.
The target is the same in assay [2].

UniProt P49682, sequence (P49682 whole entry): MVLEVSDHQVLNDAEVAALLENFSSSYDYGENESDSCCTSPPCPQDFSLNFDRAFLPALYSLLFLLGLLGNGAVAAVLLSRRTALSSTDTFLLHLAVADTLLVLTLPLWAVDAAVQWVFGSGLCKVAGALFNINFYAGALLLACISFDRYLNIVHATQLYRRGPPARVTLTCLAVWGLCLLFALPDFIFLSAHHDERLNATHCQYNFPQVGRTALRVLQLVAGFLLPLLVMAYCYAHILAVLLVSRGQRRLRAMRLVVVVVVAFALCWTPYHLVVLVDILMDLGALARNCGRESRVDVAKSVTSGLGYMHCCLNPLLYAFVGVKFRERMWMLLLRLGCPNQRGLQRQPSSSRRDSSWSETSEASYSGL

Regarding “125I-iodinated I-TAC (radiolabeled synthetic mature I-TAC) (from UniProt O14625 22-94) (ligand)”, the radiolabeled I-TAC bound (cpm) in assay [1] was 5980 cpm.

The term IC50 denotes the concentration that inhibits the measured activity by half. Take “I-TAC (interferon-inducible T cell alpha chemoattractant), chemically synthesized predicted mature polypeptide, unlabeled (from UniProt O14625 22-94) (ligand)”: the EC50 of intracellular calcium mobilization in 300-19 CXCR3 transfectants in assay [2] amounted to 1 nM. In assay [1], the IC50 is 1 nM; the KD, high affinity site (Scatchard) was determined as 0.3 nM; the KD, low affinity site (Scatchard) was found to be 36 nM.

For “IFN-γ–induced human monokine (HuMig), recombinant, unlabeled (from UniProt Q07325 23-125) (ligand)”, in assay [2], the EC50 of intracellular calcium mobilization in 300-19 CXCR3 transfectants is 50 nM and the intracellular calcium mobilized in 300-19 CXCR3 transfectants (maximum) came to 1000 nM. The substance also gave an IC50 in assay [1] of 300 nM.

As to “IFN-γ–inducible 10-kD protein (IP-10), recombinant, unlabeled (from UniProt P02778 22-98) (ligand)”, in assay [2], the EC50 of intracellular calcium mobilization in 300-19 CXCR3 transfectants is 10 nM and the intracellular calcium mobilized in 300-19 CXCR3 transfectants (maximum) was 1000 nM. In addition, in assay [1], the concentration for half-maximal inhibition (IC50) was determined as 70 nM.
